Reference: patent publication US20220089698A1

Legend:
Experiment in all cases: cell-based or functional assay
[1] = target: HIV-1 envelope glycoprotein (gp120) of virus 7141 (HIV-1)
[2] = target: HIV-1 envelope glycoprotein (gp120) of virus 92US727 (HIV-1)
[3] = target: HIV-1 envelope glycoprotein (gp120) of virus VS001 (HIV-1)

B1: 3.1.9-1 (antibody, human IgG1, kappa, V domains shown)
VH: QVQLLQSGAAVTKPGASVRVSCEASGYNIRDYFIHWWRQAPGQGLQWVGWINPKTGQPNNPRQFQGRVSLTRHASWDFDTFSFYMDLKALRSDDTAVYFCARQRSDYWDFDVWGSGTQVTVSS
VL: DIQMTQSPSSLSARVGDTATITCQANGYLNWYQQRRGKAPKLLIYDGSKLERGVPARFSGRRWGQEYNLTINNLQPEDVATYFCQVYEFFGPGTRLDLKR
In the case of B1, the Neutralization IC50 [1] is reported as 4.35 mg/L, the Neutralization IC50 [2] is reported as 3.54 mg/L and the Neutralization IC50 [3] is reported as 0.16 mg/L.

B2: 2.2.9-1 (antibody, human IgG1, kappa, V domains shown)
VH: QVHLSQSGAAVTKPGASVRVSCEASGYKIRDHFIHWWRQAPGQGLQWVGWINPKTGQPNNPRQFQGRVSLTRHASWDFDTFSFYMDLKAVRSDDTAIYFCARQRSDYWDFDVWGSGTQVTVSS
VL: DIQMTQSPSSLSARVGDTATITCQANGYLNWYQQRRGKAPKLLIYDGSKLERGVPARFSGRRWGQEYNLTINNLQPEDVATYFCQVYEFFGPGTRLDLKR
B2 was tested, and the Neutralization IC50 [1] was 1.75 mg/L, the Neutralization IC50 [2] was 13.1 mg/L and the Neutralization IC50 [3] was 0.15 mg/L.

B3: 3.1.15-1 (antibody, human IgG1, kappa, V domains shown)
VH: QVQLLQSGAAVTKPGASVRVSCEASGYNIRDYFIHWWRQAPGQGLQWVGWINPKTGQPNNPRQFQGRVSLTRHASWDFDTFSFYMDLKALRSDDTAVYFCARQRSDYWDFDVWGSGTQVTVSS
VL: DIQMTQSPSSLSARVGDTATITCQANGYLNWYQQRRGKAPKLLIYDGSKLERGVPARFSGRRWGQEYTLTINNLQPEDVATYFCQVYEFFGPGTRLDLKR
Binder B3 has a Neutralization IC50 [1] of 9.1 mg/L, a Neutralization IC50 [2] greater than 33 mg/L and a Neutralization IC50 [3] of 0.49 mg/L.

B4: 2.3.7-1 (antibody, human IgG1, kappa, V domains shown)
VH: QVHLSQSGAAVTKPGASVRVSCEASGYNIRDYFIHWWRQAPGQGLQWVGWINPKTGQPNNPRQFQGRVSLTRHASWDFDTFSFYMDLKAVRSDDTAIYFCARQRSDYWDFDVWGSGTQVTVSS
VL: DIQMTQSPSSLSARVGDRATITCQANGYLNWYQQRRGKAPKLLIYDGSKLERGVPARFSGSRWGQEYTLTISSLQPEDVATYFCQVYEFFGPGTRLDLKR
In the case of B4, the Neutralization IC50 [1] is reported as 5.08 mg/L, the Neutralization IC50 [2] is reported as greater than 50 mg/L and the Neutralization IC50 [3] is reported as 0.47 mg/L.

B5: 2.3.15-1 (antibody, human IgG1, kappa, V domains shown)
VH: QVHLSQSGAAVTKPGASVRVSCEASGYNIRDYFIHWWRQAPGQGLQWVGWINPKTGQPNNPRQFQGRVSLTRHASWDFDTFSFYMDLKAVRSDDTAIYFCARQRSDYWDFDVWGSGTQVTVSS
VL: DIQMTQSPSSLSARVGDTATITCQANGYLNWYQQRRGKAPKLLIYDGSKLERGVPARFSGRRWGQEYTLTINNLQPEDVATYFCQVYEFFGPGTRLDLKR
Work on B5 yielded a Neutralization IC50 [1] of 5.93 mg/L, a Neutralization IC50 [2] greater than 50 mg/L and a Neutralization IC50 [3] of 0.85 mg/L.

B6: 1.1.104-1 (antibody, human IgG1, kappa, V domains shown)
VH: QVQLLQSGAAVTKPGASVRVSCEASGYNIRDYFIHWWRQAPGQGLQWVGWINPKTGQPNNPRQFQGRVSLTRHASWDFDTFSFYMDLKALRSDDTAVYFCARQRSDYWDFDVWGSGTQVTVSS
VL: DIQMTQSPSSLSASVGDTATITCQANGYLNWYQQRRGKAPKLLIYDGSKLERGVPSRFSGRRWGQEYTLTINNLQPEDIATYFCQVYEFFGPGTRLDLKR
B6 was tested, and the Neutralization IC50 [1] was 5.13 mg/L, the Neutralization IC50 [2] was greater than 50 mg/L and the Neutralization IC50 [3] was 0.45 mg/L.

B7: 2.3.9-1 (antibody, human IgG1, kappa, V domains shown)
VH: QVHLSQSGAAVTKPGASVRVSCEASGYNIRDYFIHWWRQAPGQGLQWVGWINPKTGQPNNPRQFQGRVSLTRHASWDFDTFSFYMDLKAVRSDDTAIYFCARQRSDYWDFDVWGSGTQVTVSS
VL: DIQMTQSPSSLSARVGDTATITCQANGYLNWYQQRRGKAPKLLIYDGSKLERGVPARFSGRRWGQEYNLTINNLQPEDVATYFCQVYEFFGPGTRLDLKR
With B7 the Neutralization IC50 [1] was 2.56 mg/L, the Neutralization IC50 [2] was 11.1 mg/L and the Neutralization IC50 [3] was 0.22 mg/L.

B8: 2.3.12-1 (antibody, human IgG1, kappa, V domains shown)
VH: QVHLSQSGAAVTKPGASVRVSCEASGYNIRDYFIHWWRQAPGQGLQWVGWINPKTGQPNNPRQFQGRVSLTRHASWDFDTFSFYMDLKAVRSDDTAIYFCARQRSDYWDFDVWGSGTQVTVSS
VL: DIQMTQSPSSLSARVGDTATITCQANGYLNWYQQRRGKAPKLLIYDGSKLERGVPARFSGRRWGQEYILTINNLQPEDVATYFCQVYEFFGPGTRLDLKR
B8 gave a Neutralization IC50 [1] of 23.8 mg/L, a Neutralization IC50 [2] greater than 50 mg/L and a Neutralization IC50 [3] of 1.92 mg/L.

B9: 3.1.13-1 (antibody, human IgG1, kappa, V domains shown)
VH: QVQLLQSGAAVTKPGASVRVSCEASGYNIRDYFIHWWRQAPGQGLQWVGWINPKTGQPNNPRQFQGRVSLTRHASWDFDTFSFYMDLKALRSDDTAVYFCARQRSDYWDFDVWGSGTQVTVSS
VL: DIQMTQSPSSLSARVGDRATITCQANGYLNWYQQRRGKAPKLLIYDGSKLERGVPARFSGSRWGQEYILTISSLQPEDVATYFCQVYEFFGPGTRLDLKR
Binder B9 has a Neutralization IC50 [1] of 13.2 mg/L, a Neutralization IC50 [2] greater than 21 mg/L and a Neutralization IC50 [3] of 0.56 mg/L.

B10: 3.1.12-1 (antibody, human IgG1, kappa, V domains shown)
VH: QVQLLQSGAAVTKPGASVRVSCEASGYNIRDYFIHWWRQAPGQGLQWVGWINPKTGQPNNPRQFQGRVSLTRHASWDFDTFSFYMDLKALRSDDTAVYFCARQRSDYWDFDVWGSGTQVTVSS
VL: DIQMTQSPSSLSARVGDTATITCQANGYLNWYQQRRGKAPKLLIYDGSKLERGVPARFSGRRWGQEYILTINNLQPEDVATYFCQVYEFFGPGTRLDLKR
With B10 the Neutralization IC50 [1] was 24.5 mg/L, the Neutralization IC50 [2] was greater than 41 mg/L and the Neutralization IC50 [3] was 2.41 mg/L.

B11: 2.2.12-1 (antibody, human IgG1, kappa, V domains shown)
VH: QVHLSQSGAAVTKPGASVRVSCEASGYKIRDHFIHWWRQAPGQGLQWVGWINPKTGQPNNPRQFQGRVSLTRHASWDFDTFSFYMDLKAVRSDDTAIYFCARQRSDYWDFDVWGSGTQVTVSS
VL: DIQMTQSPSSLSARVGDTATITCQANGYLNWYQQRRGKAPKLLIYDGSKLERGVPARFSGRRWGQEYILTINNLQPEDVATYFCQVYEFFGPGTRLDLKR
B11 was tested, and the Neutralization IC50 [1] was 7.08 mg/L, the Neutralization IC50 [2] was greater than 50 mg/L and the Neutralization IC50 [3] was 2.1 mg/L.

B12: 2.2.15-1 (antibody, human IgG1, kappa, V domains shown)
VH: QVHLSQSGAAVTKPGASVRVSCEASGYKIRDHFIHWWRQAPGQGLQWVGWINPKTGQPNNPRQFQGRVSLTRHASWDFDTFSFYMDLKAVRSDDTAIYFCARQRSDYWDFDVWGSGTQVTVSS
VL: DIQMTQSPSSLSARVGDTATITCQANGYLNWYQQRRGKAPKLLIYDGSKLERGVPARFSGRRWGQEYTLTINNLQPEDVATYFCQVYEFFGPGTRLDLKR
B12 was tested, and the Neutralization IC50 [1] was 1.99 mg/L, the Neutralization IC50 [2] was greater than 50 mg/L and the Neutralization IC50 [3] was 0.37 mg/L.

B13: 2.2.13-1 (antibody, human IgG1, kappa, V domains shown)
VH: QVHLSQSGAAVTKPGASVRVSCEASGYKIRDHFIHWWRQAPGQGLQWVGWINPKTGQPNNPRQFQGRVSLTRHASWDFDTFSFYMDLKAVRSDDTAIYFCARQRSDYWDFDVWGSGTQVTVSS
VL: DIQMTQSPSSLSARVGDRATITCQANGYLNWYQQRRGKAPKLLIYDGSKLERGVPARFSGSRWGQEYILTISSLQPEDVATYFCQVYEFFGPGTRLDLKR
B13 gave a Neutralization IC50 [1] of 3.8 mg/L, a Neutralization IC50 [2] greater than 50 mg/L and a Neutralization IC50 [3] of 1.48 mg/L.

B14: 2.3.13-1 (antibody, human IgG1, kappa, V domains shown)
VH: QVHLSQSGAAVTKPGASVRVSCEASGYNIRDYFIHWWRQAPGQGLQWVGWINPKTGQPNNPRQFQGRVSLTRHASWDFDTFSFYMDLKAVRSDDTAIYFCARQRSDYWDFDVWGSGTQVTVSS
VL: DIQMTQSPSSLSARVGDRATITCQANGYLNWYQQRRGKAPKLLIYDGSKLERGVPARFSGSRWGQEYILTISSLQPEDVATYFCQVYEFFGPGTRLDLKR
B14 showed a Neutralization IC50 [1] of 15.5 mg/L, a Neutralization IC50 [2] greater than 38 mg/L and a Neutralization IC50 [3] of 1.5 mg/L.

B15: 1.1.119-1 (antibody, human IgG1, kappa, V domains shown)
VH: QVQLLQSGAAVTKPGASVRVSCEASGYNIRDYFIHWWRQAPGQGLQWVGWINPKTGQPNNPRQFQGRVSLTRHASWDFDTFSFYMDLKALRSDDTAVYFCARQRSDYWDFDVWGSGTQVTVSS
VL: DIQMTQSPSSLSASVGDRATITCQANGYLNWYQQRRGKAPKLLIYDGSKLERGVPSRFSGSRWGQEYTLTISSLQPEDIATYFCQVYEFFGPGTRLDLKR
With B15 the Neutralization IC50 [1] was 6.92 mg/L, the Neutralization IC50 [2] was greater than 50 mg/L and the Neutralization IC50 [3] was 0.39 mg/L.

B16: 1.1.117-1 (antibody, human IgG1, kappa, V domains shown)
VH: QVQLLQSGAAVTKPGASVRVSCEASGYNIRDYFIHWWRQAPGQGLQWVGWINPKTGQPNNPRQFQGRVSLTRHASWDFDTFSFYMDLKALRSDDTAVYFCARQRSDYWDFDVWGSGTQVTVSS
VL: DIQMTQSPSSLSASVGDTATITCQANGYLNWYQQRRGKAPKLLIYDGSKLERGVPSRFSGRRWGQEYILTINNLQPEDIATYFCQVYEFFGPGTRLDLKR
B16 showed a Neutralization IC50 [1] of 16.9 mg/L, a Neutralization IC50 [2] greater than 50 mg/L and a Neutralization IC50 [3] of 3.03 mg/L.

B17: 1.1.118-1 (antibody, human IgG1, kappa, V domains shown)
VH: QVQLLQSGAAVTKPGASVRVSCEASGYNIRDYFIHWWRQAPGQGLQWVGWINPKTGQPNNPRQFQGRVSLTRHASWDFDTFSFYMDLKALRSDDTAVYFCARQRSDYWDFDVWGSGTQVTVSS
VL: DIQMTQSPSSLSASVGDRATITCQANGYLNWYQQRRGKAPKLLIYDGSKLERGVPSRFSGSRWGQEYILTISSLQPEDIATYFCQVYEFFGPGTRLDLKR
In the case of B17, the Neutralization IC50 [1] is reported as 20.2 mg/L, the Neutralization IC50 [2] is reported as greater than 50 mg/L and the Neutralization IC50 [3] is reported as 2.4 mg/L.

B18: 2.2.7-1 (antibody, human IgG1, kappa, V domains shown)
VH: QVHLSQSGAAVTKPGASVRVSCEASGYKIRDHFIHWWRQAPGQGLQWVGWINPKTGQPNNPRQFQGRVSLTRHASWDFDTFSFYMDLKAVRSDDTAIYFCARQRSDYWDFDVWGSGTQVTVSS
VL: DIQMTQSPSSLSARVGDRATITCQANGYLNWYQQRRGKAPKLLIYDGSKLERGVPARFSGSRWGQEYTLTISSLQPEDVATYFCQVYEFFGPGTRLDLKR
For B18, the Neutralization IC50 [1] was 1.58 mg/L, the Neutralization IC50 [2] was greater than 50 mg/L and the Neutralization IC50 [3] was 0.27 mg/L.

B19: 3.1.7-1 (antibody, human IgG1, kappa, V domains shown)
VH: QVQLLQSGAAVTKPGASVRVSCEASGYNIRDYFIHWWRQAPGQGLQWVGWINPKTGQPNNPRQFQGRVSLTRHASWDFDTFSFYMDLKALRSDDTAVYFCARQRSDYWDFDVWGSGTQVTVSS
VL: DIQMTQSPSSLSARVGDRATITCQANGYLNWYQQRRGKAPKLLIYDGSKLERGVPARFSGSRWGQEYTLTISSLQPEDVATYFCQVYEFFGPGTRLDLKR
For B19, the Neutralization IC50 [1] was 5.65 mg/L, the Neutralization IC50 [2] was greater than 50 mg/L and the Neutralization IC50 [3] was 0.3 mg/L.
